The source of these data is the supplement of paper PMC9170038.

In series [1] the test system is MS2 coat protein. In words: apparent KD of MS2 coat protein, switch ON state; designed switch direction (-1 OFF switch, 1 ON switch): 1; higher = weaker reporter binding. The settings on record: FMN input: 0 or 200 uM; Eterna round: R93 (includes R88 designs). The method, boiled down: (§1)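 On-chip transcription from Illumina sequencing clusters produced the designed RNA switches. These were titrated with SNAP-549-labelled MS2 coat protein (twofold steps, 0.7 or 1.5 nM to 3 µM) in 100 mM Tris-HCl pH 7.5, 80 mM KCl, 4 mM MgCl2, with or without constant ligand. The apparent KD given is the per-design median of normalised cluster binding-curve fits.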

The subject of series [2] is MS2 coat protein. In words: apparent KD of MS2 coat protein, switch OFF state (with FMN for OFF switches, without FMN for ON switches); designed switch direction (-1 OFF switch, 1 ON switch): 1; higher = weaker reporter binding. The note with it: FMN input: 0 or 200 uM; Eterna round: R93 (includes R88 designs). The essentials: as §1

Turning to “AAAAAACAUGAGGAUCACCCAUGUAGAAACAUGGGAGGAUAUACAAAGACGAAAGUCAAAGUAGAAGGCCUAAAAA [Mat - Same State 1 - Mod - D157]”, the results for the “apparent KD of MS2 coat protein” value with MS2 coat protein [1] and with MS2 coat protein [2] were 77.7 nM and 33.5 nM, respectively.
On to “AAAACACAUGAGGAUCACCCAUGUAAAAACAUGAGAGGAUAUGCAUAGAAAAAAAACUAUGCAGAAGGCUCAUGUG [SS1 - 5]”, for which the figures for the “apparent KD of MS2 coat protein” value with MS2 coat protein [1] and in the series with MS2 coat protein [2] were 20 nM and 29.1 nM, respectively.
Take “AAAACACAUGAGGAUCACCCAUGUGAAAACAUGGGAGGAUAUGCAUGGAAAACAUGCUAUGCAGAAGGCUCAUGUG [SS1 - 7]”: the “apparent KD of MS2 coat protein” value with MS2 coat protein [1] is 83.8 nM; in the series with MS2 coat protein [2], 62.6 nM.
For “AAAACACAUGAGGAUCACCCAUGUGCAAAAUUCGCAGGAUAUUCCUCAAUUAAAUGAGAGGAAGAAGGGUGAUAAA [Nob's Hobby 33 - Jieux - Same State 1]”, the “apparent KD of MS2 coat protein” value in the series on MS2 coat protein [1] stood at 18.9 nM; in the series on MS2 coat protein [2] it was 53.4 nM.
Consider “AAAAGACAUGAGGAUCACCCAUGUAAAAACGUGGGAGGAUAUGCAUGGAAAACAUGCUGUGCAGAAGGCCCGUGUC [SS1 - 22]”, for which the “apparent KD of MS2 coat protein” value in the series on MS2 coat protein [1] was found to be 263 nM; in the series with MS2 coat protein [2], 200 nM.
Consider “AAAAGACAUGAGGAUCACCCAUGUAAAAACUUGAGAGGAUAUGCUUGGAAAACAUGCUAUGCAGAAGGCUCUAGUC [SS1 - 15]”, for which the results for the “apparent KD of MS2 coat protein” value in the series with MS2 coat protein [1] and in the series with MS2 coat protein [2] were 18 nM and 26.3 nM, respectively.
As to “AAAAUAUAAACGGAGGAUAUCCAAAGAACCACAUGAGGAUCACCCAUGUAAAGAAAGAAUAAGUGGGAGAAGGCCGAAAUAAUAA [Designing denovo 27]”, the “apparent KD of MS2 coat protein” value is 18.9 nM with MS2 coat protein [1] and 56.9 nM in the series on MS2 coat protein [2].
In the case of “AAACAGAUAGGACAGGAUAUGUCGUGAUAAACAUGAGGAUCACCCAUGUGAGACAUCACGUAAUCGCAGAAGGGUCCCGUCUUAC [Usonsoave]”, the results for the “apparent KD of MS2 coat protein” value with MS2 coat protein [1] and in the series with MS2 coat protein [2] were 11.1 nM and 12.7 nM, respectively.
With “AAAGGGAUUACGGAGGAUAUGGAAAAAAAAACAUGAGGAUCACCCAUGUCAAAAAAAAAAAAGGACCAGAAGGCCGUAAUCUCAAA [hsl_samestate2]”, the “apparent KD of MS2 coat protein” value in the series on MS2 coat protein [1] was 19.9 nM; in the series on MS2 coat protein [2], 22.6 nM.
For the sequence “AAAGUGCCGACGAAGGAUAUAGCGGGUGAGACAUGAGGAUCACCCAUGUAUGCAGAACUCAUCCUCUAGAAGGUUGAGACGGCUA [Bionlateat]”, the “apparent KD of MS2 coat protein” value was 488 nM in the series with MS2 coat protein [1] and 138 nM in the series on MS2 coat protein [2].
In the case of “AAAUAAAAAAAAAAGGAUAUUCAUGUGAAAACAUGAGGAUCACCCAUGUAAAAAAAUAAAAAUAAAAAGAAGGAAAAAUAAAAAA [SS2: 86 No MS2]”, the “apparent KD of MS2 coat protein” value in the series with MS2 coat protein [1] stood at 571 nM; in the series on MS2 coat protein [2] it was 841 nM.
For “AAAUAAAGGACUGAGGAUAUACCACAUGAAACAUGAGGAUCACCCAUGUAAUAAUACAAAGGGUGGUAGAAGGUAGUCCACAAACA [so let's mod Hyphema]”, in that order: 14 nM and 26.8 nM.
For the sequence “AAAUGACAUGAGGAUCACCCAUGUCCACCAAACGGAGGAUAUUGGGCGGAAAAACGUUGUUAAGAAGGCCGAAAAA [SS1-1.0]”, the “apparent KD of MS2 coat protein” value in the series with MS2 coat protein [1] was determined as 143 nM; in the series on MS2 coat protein [2] it was 73.7 nM.
As for “AACAAUCUAUCUGAGGAUAUAUGUCGAAAGACAUGAGGAUCACCCAUGUGAAAACAUGAAAAAUAAUAGAAGGCAGAUAGAUUGA [SS2: 1141]”, the entries for the “apparent KD of MS2 coat protein” value in the series with MS2 coat protein [1] and with MS2 coat protein [2] were 80.5 nM and 413 nM, respectively.
Regarding “AACAAUCUAUCUGAGGAUAUAUGUCGAAAGACAUGAGGAUCACCCAUGUGAAAACAUGAAAAGACAUAGAAGGCAGAUAGAUUGA [SS2: 1131]”, the “apparent KD of MS2 coat protein” value in the series on MS2 coat protein [1] was 27.4 nM; with MS2 coat protein [2], 47.3 nM.
With “AACAAUCUAUCUGAGGAUAUCAUGUAAAAAACAUGAGGAUCACCCAUGUCUAGGAAAACUAGAUAUGAGAAGGCAGAUAGAUUGA [SS1 - 596]”, the figures for the “apparent KD of MS2 coat protein” value with MS2 coat protein [1] and with MS2 coat protein [2] were 110 nM and 86.1 nM, respectively.
For “AACAAUCUAUCUGAGGAUAUCAUGUAAAAAACAUGAGGAUCACCCAUGUGCAGGAAAACUGCAUAUGAGAAGGCAGAUAGAUUGA [SS2 :P - 600]” the same measures were 98.1 nM and 192 nM.
For “AACAAUCUAUCUGAGGAUAUCAUGUCAAAGACAUGAGGAUCACCCAUGUCCAGGAAAACUGGAUAUGAGAAGGCAGAUAGAUUGA [SS2: 1105]”, in that order: 179 nM and 3310 nM.
In the case of “AACAAUCUAUCUGAGGAUAUCAUGUCAAAGACAUGAGGAUCACCCAUGUCGCAGGAAACUGCUCAUGAGAAGGCAGAUAGAUUGA [SS2: 1128]”, the figures for the “apparent KD of MS2 coat protein” value with MS2 coat protein [1] and with MS2 coat protein [2] were 11.2 nM and 17.2 nM, respectively.
“AACAUACAUGAGGAUCACCCAUGUUCCGGCAGGUCAGGAUAUUCAUCGAAAGUGUUAUAAGAAGAAGGGACAUAAA [JR_SS001_Sub011]”: the figures for the “apparent KD of MS2 coat protein” value in the series with MS2 coat protein [1] and in the series with MS2 coat protein [2] were 34 nM and 48.9 nM, respectively.
For “AAGAAACAUGAGGAUCACCCAUGUAAGAUAAACACAGGAUAUGCGAAAGAAAUAAAGAAAGCAGAAGGGUGAAGAA [Mat - Same State 1 - Tesla mod - D147]”, the “apparent KD of MS2 coat protein” value in the series on MS2 coat protein [1] was determined as 14.3 nM; in the series with MS2 coat protein [2], 26.8 nM.
For “AAGAAACAUGAGGAUCACCCAUGUAGAAACAUGGGAGGAUAUACAAAGACGAAAGUCAAAGUAGAAGGCCUAAGAA [Mat - Same State 1 - Mod - D164]”, in that order: 102 nM and 63.5 nM.
“AAGAAACAUGAGGAUCACCCAUGUGAGAAUAACACAGGAUAUGCGAAAAGAAACAAAGAAGCAGAAGGGUGAAGAA [Mat - Same State 1 - Tesla mod - 54]”: the “apparent KD of MS2 coat protein” value with MS2 coat protein [1] turned out to be 20 nM; in the series on MS2 coat protein [2], 40.3 nM.
In the case of “AAGAAAGUUUACGAGGAUAUGUUCCGCAGAACAUGAGGAUCACCCAUGUGAACAAGAAAGGCGACGCAGAAGGCGUGAGCUAUGA [Anesdien]”, the results for the “apparent KD of MS2 coat protein” value in the series with MS2 coat protein [1] and in the series with MS2 coat protein [2] were 32.7 nM and 106 nM, respectively.
“AAUAAACAUGAGGAUCACCCAUGUAAUAAUAUGGGAGGAUAUACUAAAAUAAAAUAAAAUGUAGAAGGCCUAAUAA [LROPPY Same State 1 - v05_deltaG=1.05 break up the As]”: the “apparent KD of MS2 coat protein” value in the series with MS2 coat protein [1] was found to be 35.5 nM; in the series on MS2 coat protein [2] it was 159 nM.
As to “AAUACAAAUAGUCAGGAUAUCAAAAAUAAGACAUGAGGAUCACCCAUGUAAUAAGUAAAAGUAAAUGAGAAGGGACAGGGUGAAA [JR_SS002_Sub401]”, the “apparent KD of MS2 coat protein” value is 530 nM in the series with MS2 coat protein [1] and 59.2 nM in the series with MS2 coat protein [2].
With “AAUACACAUGGUCAGGAUAUCGCAGCUAGGACAUGAGGAUCACCCAUGUCGUAAGUAAAAGUAAAUGAGAAGGGACAGGGUGACC [JR_SS002_Sub406]”, the “apparent KD of MS2 coat protein” value came to 133 nM in the series with MS2 coat protein [1] and 28.2 nM in the series on MS2 coat protein [2].
For “AAUAUACAUGAGGAUCACCCAUGUUAGGUGGGACUAGGAUAUCAAAAUAAAUAAAGAACAUGAGAAGGAGUAUCAA [JR_SS001_Sub401]”, in that order: 94.5 nM and 152 nM.
For “AAUAUAUUAAGUGAGGAUAUCAUAGGAAAAACAUGAGGAUCACCCAUGUGGGAAACCUGGUCGGGUGAGAAGGUACUUAAUAUAU [Samwise Clockwise 31 - Jieux - Same State 2]”, in that order: 69.2 nM and 175 nM.
Turning to “AAUCCAAAUAGUUAGGAUAUGGGAAUUAAAACAUGAGGAUCACCCAUGUAAUUGAAACAAGUUAACCAGAAGGGACAGGGUGAAA [JR_SS002_Sub209]”, the “apparent KD of MS2 coat protein” value came to 68.8 nM with MS2 coat protein [1] and 46.1 nM in the series with MS2 coat protein [2].
As to “ACUAUACAUGAGGAUCACCCAUGUCAGGUGGGACUAGGAUAUCAUAAGCCAGAGUAAGUAUGAGAAGGAGUAGAAA [JR_SS001_Sub305]”, the “apparent KD of MS2 coat protein” value in the series on MS2 coat protein [1] stood at 73.2 nM; with MS2 coat protein [2], 74.7 nM.
Consider “AGAAAACAUGAGGAUCACCCAUGUAGGAAUAUGGGAGGAUAUACAAAGACGAAAGUCAGAGUAGAAGGCCUAGGAA [salish99-SS1-089]”, for which the entries for the “apparent KD of MS2 coat protein” value in the series with MS2 coat protein [1] and in the series on MS2 coat protein [2] were 20.7 nM and 71.5 nM, respectively.
For “AGAAAUAAAAGACAGGAUAUCCAAACUCAAACAUGAGGAUCACCCAUGUAAAAGAAAAUAAAGUGGGAGAAGGGUCAAAAUAAGA [Jieux modified + C segment V4]” the same measures were 12.6 nM and 33.1 nM.
As to “AGAAAUAAAAGAGAGGAUAUCCAAAAGAAAACAUGAGGAUCACCCAUGUAAAAGAAAAUAAAAUGGGAGAAGGCUCAUGAUAAAG [JL In the Red Helter Skelter 2 mod 1]”, the “apparent KD of MS2 coat protein” value in the series on MS2 coat protein [1] was 42 nM; in the series with MS2 coat protein [2] it was 35.8 nM.
As to “AGAAAUAAAAGCGAGGAUAUCCAAAAGAAAACAUGAGGAUCACCCAUGUAAAAGAAAAUAAAAUGGGAGAAGGCGCAAAAUAAAG”, the “apparent KD of MS2 coat protein” value was 14.7 nM in the series with MS2 coat protein [1] and 27.3 nM with MS2 coat protein [2].
For “AGAAAUAAACCGAAGGAUAUCUAAACCUAAACAUGAGGAUCACCCAUGUAAAAGAAAAUAAAAUGGGAGAAGGUCGGAAAUAAGA [Designing denovo 12]” the same measures were 17.5 nM and 29.9 nM.
For “AGAAAUAAAGCUGAGGAUAUCCAAAACCAAACAUGAGGAUCACCCAUGUAAAAGAAAAUAAAAUGGGAGAAGGCAGCAAAUAAGA [Designing denovo 8]”, in that order: 12.5 nM and 21.9 nM.
For “AGAAGACAUGAGGAUCACCCAUGUGGGAAUAUGGGAGGAUAUACAAAGACGAGAGUCAGAGUAGAAGGCCUAGGAU [salish99-SS1-092]”, the entries for the “apparent KD of MS2 coat protein” value in the series on MS2 coat protein [1] and in the series with MS2 coat protein [2] were 37.3 nM and 118 nM, respectively.
